Experiment: soluble fraction after stress (log2 fold change); higher = more stays soluble; pooled small domains, quantitative proteomics
Conditions: stress: 50 degC
Summary of the method: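 Pooled custom libraries of small protein domains were each held under stress at 50°C. The read-out, high-throughput quantitative proteomics, tracked how much of each protein stayed soluble. This is reported as a base-two log fold change used to indicate aggregation propensity. Higher values mean more protein remains in solution.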

| Sequence | soluble fraction (log2) |
| --- | --- |
| HMNKSGVVLIRVTVDASGRVTSAAYEPKGSTTSDVELVAEARKAALRTRFTESRTVIEGGVITYIFKL | -2.28 |
| HMNKSYTVPDVRGMTVEEAQEAEGVKDIFTVHVQGTRKTDEYQPGQIVEQDPIAGRTRKSNFVIEVYVAE | 0.0819 |
| HMNKTQLQIEDEVLKPLIAEIFSKSKGRFGARKIRSKLMGLGYTASERRILRLMKELGLSSAG | -0.378 |
| HMNKTVKIPNVSNLSREDAESVLKENGISVNSEVKQIESDTIEKGKVVKTDPSIGTSVKKGRSITIYVSSG | 0.0637 |
| HMNKWMQLASEEDKKLFNEAPKEIQDSITESAKFFDIRTKADVDTFWANTGLRQMKQQAMLNESFVNEY | -0.0275 |
| HMNLDMVINKIGIVTEDIKQDKIGEVKVLGKRWSAYSNTELKKDEKVKILSIDGVKLKVEKI | 0.191 |
| HMNLGAHVYWRNHRAYGDFREYEDVGGGREALALPGSTWGTKDPRVAQALFAARLTEFQEARVGR | -1.05 |
| HMNLGVIYSLKAEVRSEPNTFSTRLFEVHEGLKVSINQLENDWVEIELLDGKTGWISNDQIRLI | -2.12 |
| HMNLIFFSENLSTFRKEKGWTQSELAEKLGVKANTISNYEKGISTPDYKIIAKLRELFEMPTDVLLYSNLS | -1.39 |
| HMNLLDYDFFEKMSSKEQEEIVEKVYIDFLNKSTGTNSPFYLKLFEKGKKSYIVNWLNENNF | -1.44 |
| HMNLLSPREKQSLTLYASGLTLREVASELKLSPNSVGKFISRGKFKLNKSGAIVNSKTSIYLELKKRNLI | -0.111 |
| HMNLNESVELGQELLSQALAQLGIRGELSPSTIDKLLAESSAKSMEELYADIGIGKRMPALVARHIFGLMD | -0.43 |
| HMNLQAYQSVLDKLNEEYGTTFRFPTEEELHEVGLTNTVDPRTATVSATEFEKYMRPIAERISQANL | -0.00884 |
| HMNLSAREWTSADGSRTFQGELTGFQDGKVKVRRSDGKSLVFAIELLSESDQQFIKTNQLVIAKKDED | 0.161 |
| HMNLYHALDQQGEVYLTIPPRQSGRGKVTLMIDGRVREMDAMTDGDALKTGSKVRVTEILDENALKVEAM | 0.207 |
| HMNMAEETLDTAAKILKAAEEEFMEKGYGNAKMMSIAARAGVSHSMLHYYYRSKGKLFQMIFDEKA | -1.4 |
| HMNMAEQGISLDSEAGKARFVSQALPLLKQLPDGVFKQRMLNQLADRVEVTADFIAQQLAQLKAA | -0.079 |
| HMNMAVELEDGTQIFVFSEDGEFAGKRAVIADEEGRPTEENAPAGTHTLRDGRSIVVGEGGVIESVVET | 0.0438 |
| HMNMEYQKAINHIVQMVKDGQLIVGSKIPSERDLSESLGIGRNSTREAISILRGMGLVESRHGSGNYIAKD | -0.148 |
| HMNMGEKIRSLIGQFGVTSEDLKNLSVANLLIRMNQEAGDSKTKGILASLLETVNKAGVGNLTPDALGIK | -0.00161 |
| HMNMLGEQVRNIRKSRGFTLKALAEQTGLSIGYISQIERNLTDPSLSTLRKISAALDVPTYLFMG | -1.55 |
| HMNMLGSNIKYLRNRHKLSQQELSEKLGVPRSSLSDYERGHTQVGLDSLIKLADIFDVKIDDLLRSNLSHR | -0.0552 |
| HMNMPHEIDANFISSLGRLIDNHGKNYGDFQIFREMFLDYFPRFDELSSNNKEKINRRLYKFFETLFG | -1.71 |
| HMNMVEESVKKSSQWAVFEPNTISTWVKIQAMIENYLYQKWKEGALAGAKPEHAFFVKVGLGETM | 0.163 |
| HMNNEISINGNKIYFNKNISKVFIYDISGKLIKHKNNFNNNFIDLSEFNSAFYIIKALDINENYTTKKIFL | -1.58 |

| Sequence | soluble fraction (log2) |
| --- | --- |
| HMNNFTPEHLEKDIEGSLFFRRLKETAREEPGSLTVAQKDFIQMWHDQADGVYTLRQVFVQTAFDHVRSL | 0.1 |
| HMNNFTQSALDTIDGIGKRRKKLLLNHFGSVKLIENASIEDIKKIDGISDLVANKIYNFFNKN | -0.652 |
| HMNNGAEIGAEIRSLRKARGLTLEDLAAKIGRSVGYISQVERGISPLTIPNLKAIAEVLGVGINWFFRGEA | -0.552 |
| HMNNILNYTIAELMEILKIDDLETENVINSSNNLINKSINENNFPLAEFYEDVKNNLIEFIETFDS | -0.632 |
| HMNNLELSEEEKSVLTIIEKEGLIELDKLKTKLELSNKKWDKTLKFLTKNKLAKVVKNDNGLFVEL | 0.0812 |
| HMNNLLEDIKARLMAQAEAGGHIDTETELAEHFGVTRYRIRKELDLLSQMGLLRRQPKNGIEVLTV | -0.106 |
| HMNNLNDIIEIIRIYAKNYARNNPSWNHSELINRIRDKALGEAEDYNIRLSEEDLALITELSLRGL | -0.474 |
| HMNNMVNTLLKLLAEQDVLRGIVRRFTPSSVFVFLQNEEVEVELPLQGRSLAPGQLVELTQEGASVALKRL | -0.647 |
| HMNNPLLDKVYQLMKQNNITEEEIVRAVAMKGYFPDDMKLGDYPDDFIDGVLIGAWDQIKQFIINNISPFK | 0.0631 |
| HMNNSDIDITVGKNSISINNPNRTNIIIYSSNGMLIDSSKNASYKRNLPSGIYIVKSGSSTHKVIV | -0.148 |
| HMNNTIKFFVSQDDDSTRLDVFLSKKIENLTRSNIKKFINLNNVKINKATINSPSKKVKLYDEIEIKFSS | -1.72 |
| HMNNTIKFSVDSQNSGKRLDIFLTENIKNYTRSFLKKLIENRQVKLNNNFIISPSERVKFKDQININILQ | -1.17 |
| HMNNVDIMGRMVYDDQHREVINFGKYKGVLVTEVLKKDPGYFSWIQQGDFPSDMKRIMMAIKLRM | -2.3 |
| HMNNVDQLIEQYKTLPGGLLPLLHAIKHALGYIPESTVGSIAKGFNLSRAEVHGVISFYHDFNTQP | 0.0707 |
| HMNPAYTDSRMKTFLEELPVMKASLSQKHVTRFLVWQEYIGRHPDGYGKSQFFYHLKQNLVAAKG | -0.56 |
| HMNPDTERIREFVAVSLKNRKVATSGEIQNMIVKQFKNFKLKSHGYSNMKSFLSSIDKIQLNSNGKYSLK | -0.355 |
| HMNPEDDLLKAIIMKYFSNAQVQVDKNVIEYLLKRVDRDYQNLYNILEKINILSLQRKSKITTHLIRDIM | -0.432 |
| HMNPFLELTEREMDVLRLIAIGRNNQEIASELVISEKTVKTHITNIFSKLHFKDRTQAAAYAWQSGIVR | -0.74 |
| HMNPHGVAIIDVRKGKASTLRSLATSVRSLGEWDQLKIPIFNLESLTSLVLWHGLDAIVKEPESLQSNLIL | -0.62 |
| HMNPHIQFWSLLRRQPDYNSAYKDELKAMFVWQWSGEKTESLNEFYKTDPYRYKSMLMDMRNRAL | -3.15 |
| HMNPIDAHVGARVRLRRMLIGMSQEKLGELLGVTFQQIQKYEKGANRIGASRLYEVSRVLDVPVQYFFDDM | -3.47 |
| HMNPLDGTSVHPESYEAAEKLLKKQGFSLEDISGGKLTGLSLTIKDYARLAKELEIGEITLRDIVKELEK | 0.0193 |
| HMNPLHYKAAHWVREGLFDDLKSFVELETRINSIFEEKDRGDVFEIFIEGYRSFSKWRALVLRLA | -0.28 |
| HMNPNEVQIPDLVNKTEEEAEQILKDLKLKLVVKSEEYDENIEKGKIISQDPTYKENYKIKEHSEISVIIS | 0.214 |
| HMNPNPFVNLSPRELEVLNLLFKGYGVLEISNELNIGQTTASTFKSRILKKTSTHSVVELIKLAEQYGFIP | -0.508 |

| Sequence | soluble fraction (log2) |
| --- | --- |
| HMNPNPYIVLGVDKSMPFGEIKKVYQRKRREFHPDSLVAKGLPDELLQKAQDKFIAIQEAYKSIEKNQV | 0.317 |
| HMNPNSIDEKLKLLSNREKEVAILVLKKLSYFEISEQLNITIRTVKAHTKNIYEKFNVSNRLAFLLLFN | -0.225 |
| HMNPSAFSEYSFELLQSALLKKKIDENLSNQTIARDAGVSEAFVQKVLTNNVKRPSVKNRVRMISYLGLD | -1.22 |
| HMNPSFTMGTRIKEYIDAHYLEDLKLADIAEALHINLYYLSHTFKDLTGSSPMQYIIRRRIEE | -0.778 |
| HMNPSPYLRRHLSGDWGDLDEDDRRSNDAALASGEARLLSSYQVDPDLKLWIITEWDRSVTTLLLPSE | -0.0802 |
| HMNPTLPYGFAKRHGVILLEAGEVAVVGLREGADPAALIETRRALGRPLRVEPLDQATFDRRLSQVYA | -0.148 |
| HMNPTSLTFRSNVKDGKVYVDGIFKGSSDLDFDLPKGRHSIRIEKDGYVPFAKTINLIKALVIDFNMEKA | -1.83 |
| HMNPTTQIQYNLPKSEFVSIYIYDLIGNRVKSLINNYQDAGYKSVYWDAMNDLGQPVSAGMYIY | -0.134 |
| HMNQKKFIQADYEDRLFDHLAFEVKDMEKIISMMRREKFTITDEPFRLSPTGSLIAFVEDPDRTLIELIER | -0.32 |
| HMNQNAMIGAHIRNLRLAKKLTLKQLSDESGLSVGFLSQLERGMSSIAIDTLARLAHILGADLSSFF | -0.763 |
| HMNQRQLQIKQMLDVAQEVFLKQLKTVFPDVSEMTIRRDLILLEDMGYAVRTHGGAVSINRF | -2.14 |
| HMNQRTATVTASQLNVRSGPSTAYSIVHVLRQGETVEVIGESDGWYQIRLKDGRVGWSSGQYLNLN | 0.0784 |
| HMNQSAVMAERMKQTKNRILQTAKEIFLEQGYKRTTIRQIVERSGITSGSIYNIFSSKEEIFSALVDDL | -2.65 |
| HMNQSYQLWIKDDELGPTPRSVGVLNEHFEVDPAALTNYDAELLRRATFGISLEPRGGSPTGQP | -0.0224 |
| HMNQTPQISYSQFIADVRSGQIKDVNIDSDNRTIVGHKFSGEEFTTFSPGDNKLVDELLNYNVEIKTSP | 0.411 |
| HMNREEFLSQLERLLYDIPAQEREEALEYYNGYFDDAGKEKEAEVIQELGSPGKVAAIIKADLSG | -0.0285 |
| HMNRETAISIYRILHILEEPYKEVFTLRTLGDLSYREIADIFGKQENWARVTYHRAKLKIREALVS | -2 |
| HMNRIFQERVVPAELDTLRADKVAASLFSDFSRNELAHWIKMGDLSINGGVKKAKDKLFEGDVLILDVEIV | -0.798 |
| HMNRKILVLLAGKEQITDNVSVMQSIHRYAFINTATINKAQHEILIEKEEIRQEALTLIHEFLK | -0.0593 |
| HMNRKLKAKATREKIYKSAEKLFSQNDYNKVSVDAIVEAAGVAKGSFYVHFASKDALIAMLINDH | -0.179 |
| HMNRMKLLREQHNLSQTDLAKILNISRQSYNFYENEKRDPDTTMLIRIADFFNVSLDYLLGRTNN | -1.66 |
| HMNRPYVELFSGLGQEEAQQIVQKLQEDEVDYKFSGDSTILVKEDVVDQTKATLVQEGYPKS | 0.0181 |
| HMNSEEINDVRKAVDELPTHLREILLLNYFQQMSYVQISDSLEIPLGTVKSRLHAAVAAFRNAWQSSQEE | -0.617 |
| HMNSEELFLRRIAQELIDQHGKDLHRIIVVLPSNRSKVFLKKFLFEILGSAFLTPQLMLLPQFVKSIV | -0.282 |
| HMNSFGWESFVGEKGVTDTDLRPSGWIVIKDKRLFALTEGTFIEKGVSVEILSVEGNRIVVREIS | -0.249 |

Source: the domain aggregation screens of Martell et al. (2025)
